In patent US20250027068:
Substitutions are numbered along the chain they refer to.

B1: PRT-559 (protein)
chain: MANQEIRYSEETPKTITSIWTKGVTPPTDFIKTEDVLHAPYVANQGWYDITKTFNGKDDLLCGAATAGNMLHWWFDQNKEEIENYLKKHPEKQKINFNGEQMFDVKEAIDTKDSQTDSALFEYFKDKAFPYLSTKHLGVFPDHVIDMFINGYRLSLTNHGPTPVKDGTKDPRGGIFDAVFTRGDQTKLLTERHDFKEKTLNEISDLIKQELTEGKALGLSHTYANVRINHVINLWGADFNSEGNLEAIYVTDSDSNASIGMKKYYVGVNAAGKVAISAKEIEDDNIGAQVLGLFTLSTGQDIWEQTNLEHHHHHH
B2: PRT-544 (protein)
chain: MANQEIRYSKNENPNVTIKWVHGIGEPTQAEKEKIEFWWYETTTTKFFNNRKVDHLGDGNQCWAKTDSNMLHWWFVQNEENINQYIAKKNITGKINFNGEQMFDVKEGIDDNQEKEKSYIANTFRTKKAHNLSTKHKGDYIINGLSWYLYGLNNFKIAHGPTPVKKKPKFYGPALFKDVFNRGDGNTPIIVETDFKEYTKKEFEDTLSAALDSKKAIGINIYGSNVDYQHAITLWGAAFDEEENIIAIYVVDNNFKFENRIFPYGIWYQKEGRPYLFNYEINSFVKNRYVGEVITLDKGEAQWQETNLEHHHHHH
B3: PRT-534 (protein)
chain: MANQEIRYSSDSEWANKKVWVYGITPPEEGAWKYSTYYLPWKKEYGWYDCNKRNPTADGMMCWAATASNLLHWWIAQNKEYIDLYGDKYKGPDKINFNGEQMFDVKEYIDPLDKPQESDIFQCFIDKSFADLSTKHEAGYGDAGINWFIHGIIPSSPAHGPTPVKLDYPYNPAGYFKDVFPRGDGVVLLGNNGDFKELSKERFNETIKDALKNKKAIGLSIGPVNVRSSHVVTIWGAEFDENGDVSYIYMADNNDNWGVGCIRYQIVYEEGGTYTCYKTEIIPSDRPIPINRLVTLELGEEYWKQTNLEHHHHHH
B4: PRT-583 (protein)
chain: MANQEIRYSKAKPKVITSVWTKGVTPPTQFTKNEDVFHAPYLANQGWYDITKTFNGKDDLLCGAATAGNMLHWWFDQNKEQIERYLKKHPEKQKINFNGEQMFDVKEAIDTKDSQTNSKLFNYFKEKAFPYLSTKHLGVFPDHVIDMFINGYRLSLTNHGPTPVKEQNKDPRGGIFDDVFTRGDQSKLLTSRHDFKEKTLKEISDLIKQELKEGKALGLSHTYANVRINHVINLWGADFDAEGNLIAIYVTDSDSNASIGMKKYYVGVNSAGKVAISAKEIEDDNIGAQVLGLFTLSTGKDIWEKTNLEHHHHHH
B5: PRT-261 (protein)
chain: MVTSVWTKGVTPPTNFTYGEDVLHAPYVANQGWYDITKLFNGKDNLLCGAATAGNMLHWWFDQNKEQIENYLKKHPEKQKINFNGEQLFDVKEAIDTKDSQLDSKLFDYFKEKAFPNLSTKHLGVFPDHVIDMFINGYRLSLLNHGPTPVKRGSKDKRGGIFDAVFTRGVQSKLLTNRHDFKEKTLKEISDLIKQELTEGKALGISHTYANGRINHVINLWGADFDAEGNLEAIYVTDSDTNPSIGMKKYFVGVNSSGKVAISAKEIEEDNIGAQVLGLFTLSTGQDIWNQTN
B6: PRT-545 (protein)
chain: MANQEIRYSEETPKTITSVWTKGVTPPTDFIKNEDVLHAPYIANQGWYDITKTFNGKDDLLCGAATAGNMLHWWFDQNKEEIERYLKKHPEKQKINFNGEQMFDVKEAIDTKDSQTDSALFEYFKDKAFPYLSTKHLGVFPDHVIDMFINGYRLSLTNHGPTPVKRGTKDPRGGIFDAVFTRGDQSKLLTSRHDFKEKTLKEISDLIKQELTEGKALGLSHTYANVRINHVINLWGADFDSEGNLEAIYVTDSDSNASIGMKKYYVGVNSAGKVAISAKEIEGDNIGAQVLGLFTLSTGQDIWEQTNLEHHHHHH
B7: PRT-587 (protein)
chain: B6 chain with K32Y, E81Q, A119K, K201N, D240N, Q300K
B8: PRT-571 (protein)
chain: B6 chain with K14S, D29Q, K32Q, E81Q, R84N, K201N, D240N, S241A, S270A, E304N
B9: PRT-596 (protein)
chain: B6 chain with K14S, K32Q, E81Q, R84N, K201N, Q209K, D240N, S241A, E304N
B10: PRT-245 (protein)
chain: MVTSVWTKGVTPPANFTQGEDVFHAPYVANQGWYDITKLFNGKDDLLCGAATAGNMLHWWFDQNKDQIKRYLEEHPEKQKINFNGEQMFDVKEAIDTKNHQLDSKLFEYFLEKAFPNLSTKHLGVFPDHVIDMFINGYRLSLLNHGPTPVKEGSKDPRGGIFDAVFTRGDQSKLLTSRHDFKEKNLKEISDLIKKELTEGKALGLSHTYANGRINHVINLWGADFDSNGNLKAIAVTDSDSNASIGMKKYFVGVNSSGKVAISAKEIKEDNIGAQVLGLFTLSTGQDSWNQTN
B11: PRT-253 (protein)
chain: MVTSVWTKGVTPPTNFTYGEDVLHAPYVANQGWYDITKTFNGKDDLLCGAATAGNMLHWWFDQNKEQIENYLKKHPEKQKINFNGEQMFDVKEAIDTKDSQLDSKLFEYFLEKAFPNLSTKHLGVFPDHVIDMFINGYRLSLLNHGPTPVKRGSKDPRGGIFDAVFTRGDQSKLLTNRHDFKEKTLKEISDLIKQELTEGKALGISHTYANVRINHVINLWGADFDAEGNLEAIYVTDSDSNKSIGMKKYFVGVNSDGKVAISAKEIEEDNIGAQVLGLFTLSTGQDIWNQTN
B12: PRT-269 (protein)
chain: B11 chain with N15D, T17I, V28K, N30G, F181L, E183N, Y235A, K243A, D257S

Target: pooled human IgG (human IgG1, 2, 3 and 4)

Protein	Enzyme Activity Endpoint Assay: Fab′2	Enzyme Activity Endpoint Assay: Fc	Enzyme Activity Endpoint Assay: IgG	Enzyme Activity Endpoint Assay: scIgG
B1	657 ng/µL	158 ng/µL	0 ng/µL	0 ng/µL
B2	12 ng/µL	170 ng/µL	314 ng/µL	748 ng/µL
B3	0 ng/µL	0 ng/µL	1380 ng/µL	0 ng/µL
B4	748 ng/µL	396 ng/µL	0 ng/µL	261 ng/µL
B5	0 ng/µL	76 ng/µL	615 ng/µL	317 ng/µL
B6	690 ng/µL	435 ng/µL	0 ng/µL	0 ng/µL
B7	347 ng/µL	156 ng/µL	0 ng/µL	120 ng/µL
B8	786 ng/µL	383 ng/µL	0 ng/µL	295 ng/µL
B9	753 ng/µL	348 ng/µL	0 ng/µL	263 ng/µL
B10	423 ng/µL	277 ng/µL	46 ng/µL	204 ng/µL
B11	912 ng/µL	334 ng/µL	0 ng/µL	0 ng/µL
B12	98 ng/µL	189 ng/µL	86 ng/µL	592 ng/µL
